# Key:
# HLA-A*26:01 = experiment: IEDB peptide-MHC binding, purified MHC/competitive/radioactivity; filed as Kd, often an IC50 or EC50 that approximates it; ≥ and ≤ were set here for values at or beyond the usual limits of such assays
# HLA-A*01:01 = experiment: as above
# HLA-A*29:02 = experiment: as above
# HLA-A*23:01 = experiment: as above
# HLA-A*30:02 = experiment: as above
# HLA-A*24:02 = experiment: as above
# HLA-B*40:01 = experiment: as above
# HLA-B*44:02 = experiment: as above
# HLA-B*44:03 = experiment: as above
# HLA-A*30:01 = experiment: as above; conditions: source organism: Mammarenavirus choriomeningitidis
# HLA-A*32:01 = experiment: as above; conditions: source organism: Mammarenavirus choriomeningitidis
# HLA-A*02:01 [1] = experiment: IEDB peptide-MHC binding, purified MHC/competitive/fluorescence; filed as Kd, often an IC50 or EC50 that approximates it; ≥ and ≤ were set here for values at or beyond the usual limits of such assays
# HLA-A*02:01 [2] = experiment: IEDB peptide-MHC binding, purified MHC/competitive/radioactivity; filed as Kd, often an IC50 or EC50 that approximates it; ≥ and ≤ were set here for values at or beyond the usual limits of such assays; conditions: source organism: Lassa virus Josiah
# [3] = source organism: SARS coronavirus Tor2
# [4] = source organism: Mammarenavirus guanaritoense
# [5] = source organism: Dengue virus 1 Brazil/97-11/1997
# [6] = source organism: Mammarenavirus choriomeningitidis
# [7] = source organism: Dengue virus 1 Nauru/West Pac/1974
# [8] = source organism: Dengue virus 4 Philippines/H241/1956
# [9] = source organism: Dengue virus 2 Jamaica/1409/1983
# [10] = source organism: Lymphocytic choriomeningitis virus (strain Armstrong)
# [11] = source organism: Dengue virus 3 Singapore/8120/1995
# [12] = source organism: Mammarenavirus whitewaterense
# [13] = source organism: Mammarenavirus machupoense
# [14] = source organism: Vaccinia virus WR
# [15] = source organism: Mammarenavirus brazilense
sequence,measurement,setting,value
SSPDAVTTY,Kd,HLA-A*26:01; [3],9.74 µM
same,Kd,HLA-A*01:01; [3],5.49 µM
same,Kd,HLA-A*29:02; [3],≥ 21600 nM
same,Kd,HLA-A*23:01; [3],≥ 77.8 µM
same,Kd,HLA-A*30:02; [3],3290 nM
same,Kd,HLA-A*24:02; [3],≥ 77.6 µM
SAIFFTTSLF,Kd,HLA-A*29:02; [4],87.9 nM
same,Kd,HLA-A*23:01; [4],0.0808 µM
same,Kd,HLA-A*24:02; [4],0.452 µM
SEMAEALKGM,Kd,HLA-B*40:01; [5],613 nM
same,Kd,HLA-B*44:02; [5],68.3 nM
same,Kd,HLA-B*44:03; [5],22.4 nM
QLQSPGVADY,Kd,HLA-A*26:01; [6],7.7 µM
same,Kd,HLA-A*01:01; [6],0.29 µM
same,Kd,HLA-A*29:02; [6],≥ 24900 nM
same,Kd,HLA-A*30:01,≥ 70.4 µM
same,Kd,HLA-A*32:01,≥ 69.9 µM
same,Kd,HLA-A*30:02; [6],43 nM
NVSLVKPTVY,Kd,HLA-A*26:01; [3],16.3 µM
same,Kd,HLA-A*01:01; [3],12.4 µM
same,Kd,HLA-A*29:02; [3],2410 nM
same,Kd,HLA-A*23:01; [3],≥ 70 µM
same,Kd,HLA-A*30:02; [3],1170 nM
same,Kd,HLA-A*24:02; [3],≥ 70.3 µM
DYDCVSFCY,Kd,HLA-A*26:01; [3],17.6 µM
same,Kd,HLA-A*01:01; [3],≥ 58 µM
same,Kd,HLA-A*29:02; [3],145 nM
same,Kd,HLA-A*23:01; [3],≥ 20.9 µM
same,Kd,HLA-A*30:02; [3],1400 nM
same,Kd,HLA-A*24:02; [3],≥ 20.2 µM
SGALDTTSY,Kd,HLA-A*26:01; [3],≥ 55.5 µM
same,Kd,HLA-A*01:01; [3],≥ 80.6 µM
same,Kd,HLA-A*29:02; [3],168 nM
same,Kd,HLA-A*23:01; [3],≥ 77.8 µM
same,Kd,HLA-A*30:02; [3],20.9 nM
same,Kd,HLA-A*24:02; [3],≥ 77.6 µM
AEPPFGESYI,Kd,HLA-B*40:01; [7],183 nM
same,Kd,HLA-B*44:02; [7],596 nM
same,Kd,HLA-B*44:03; [7],877 nM
IEREIPERSW,Kd,HLA-B*44:02; [8],61.6 nM
same,Kd,HLA-B*44:03; [8],649 nM
PFWITAIYVF,Kd,HLA-A*26:01; [3],0.724 µM
same,Kd,HLA-A*01:01; [3],0.41 µM
same,Kd,HLA-A*29:02; [3],657 nM
same,Kd,HLA-A*23:01; [3],0.000189 µM
same,Kd,HLA-A*30:02; [3],16000 nM
same,Kd,HLA-A*24:02; [3],0.00192 µM
KMETLQRKY,Kd,HLA-A*30:02; [9],≥ 76900 nM
RELKCGSGI,Kd,HLA-B*40:01; [5],13.8 nM
same,Kd,HLA-B*44:02; [5],119 nM
LIFRGPNVV,Kd,HLA-A*26:01; [10],≥ 77.9 µM
same,Kd,HLA-A*01:01; [10],10.8 µM
same,Kd,HLA-A*29:02; [10],≥ 54700 nM
same,Kd,HLA-A*23:01; [10],15.4 µM
same,Kd,HLA-A*30:02; [10],9970 nM
same,Kd,HLA-A*24:02; [10],≥ 77.5 µM
EEVQVLALEP,Kd,HLA-B*44:03; [9],≥ 23400 nM
VTTWEDVPY,Kd,HLA-A*01:01; [11],0.52 µM
same,Kd,HLA-A*30:02; [11],248 nM
SEMGANFRAD,Kd,HLA-B*44:02; [5],137 nM
VWKRFEHLCV,Kd,HLA-A*26:01; [12],≥ 69.7 µM
same,Kd,HLA-A*01:01; [12],≥ 70.4 µM
same,Kd,HLA-A*29:02; [12],≥ 71400 nM
same,Kd,HLA-A*23:01; [12],7.99 µM
same,Kd,HLA-A*30:02; [12],10500 nM
same,Kd,HLA-A*24:02; [12],≥ 47.6 µM
DYSVLYNSTF,Kd,HLA-A*26:01; [3],4.22 µM
same,Kd,HLA-A*01:01; [3],≥ 70.4 µM
same,Kd,HLA-A*29:02; [3],2540 nM
same,Kd,HLA-A*23:01; [3],0.159 µM
same,Kd,HLA-A*30:02; [3],≥ 60400 nM
same,Kd,HLA-A*24:02; [3],0.0242 µM
MLMPRQKI,Kd,HLA-A*02:01 [1]; source organism: Influenza A virus (A/turkey/Wisconsin/1968(H5N9)),1530 nM
QEHETSWHY,Kd,HLA-B*44:02; [9],46.7 nM
same,Kd,HLA-B*44:03; [9],29.6 nM
RTCSNWVPL,Kd,HLA-A*02:01 [1]; source organism: Vaccinia virus Ankara,329 nM
WFSQRGGSY,Kd,HLA-A*26:01; [3],2.16 µM
same,Kd,HLA-A*01:01; [3],0.182 µM
same,Kd,HLA-A*29:02; [3],0.847 nM
same,Kd,HLA-A*23:01; [3],≥ 77.8 µM
same,Kd,HLA-A*30:02; [3],11 nM
same,Kd,HLA-A*24:02; [3],≥ 62.5 µM
AFRDVLVVL,Kd,HLA-A*26:01; [3],13 µM
same,Kd,HLA-A*01:01; [3],15.9 µM
same,Kd,HLA-A*29:02; [3],14000 nM
same,Kd,HLA-A*23:01; [3],1.97 µM
same,Kd,HLA-A*30:02; [3],9830 nM
same,Kd,HLA-A*24:02; [3],6.82 µM
ALMEWLKTRPI,Kd,HLA-A*02:01 [1]; source organism: Influenza A virus (A/swine/Hannover/1/1981(H1N1)),16.9 nM
ATQPGLTSAV,Kd,HLA-A*02:01 [2],≥ 25000 nM
NMETLNMTM,Kd,HLA-A*02:01 [2],1390 nM
KVDAIDGEY,Kd,HLA-A*01:01; [9],0.953 µM
same,Kd,HLA-A*30:02; [9],171 nM
AYEHKNRSRL,Kd,HLA-A*29:02; [4],≥ 20900 nM
same,Kd,HLA-A*23:01; [4],10.2 µM
same,Kd,HLA-A*24:02; [4],≥ 26.5 µM
QCGDPSSFDY,Kd,HLA-A*26:01; [13],≥ 69.7 µM
same,Kd,HLA-A*01:01; [13],1.4 µM
same,Kd,HLA-A*29:02; [13],5830 nM
same,Kd,HLA-A*23:01; [13],≥ 28.8 µM
same,Kd,HLA-A*30:02; [13],3310 nM
same,Kd,HLA-A*24:02; [13],≥ 70.3 µM
AGPFSQHNY,Kd,HLA-A*30:02; [8],472 nM
SMRRNYFTAEV,Kd,HLA-A*02:01 [1]; source organism: Influenza A virus (A/quail/Hong Kong/SF550/00(H6N1)),1330 nM
DLKPDNILL,Kd,HLA-A*02:01 [1]; source organism: Plasmodium yoelii yoelii,154 nM
ELNAELSDKL,Kd,HLA-A*02:01 [1]; [14],≥ 20000 nM
KMTLFKSIL,Kd,HLA-A*02:01 [1]; [14],1280 nM
KEIAETQHG,Kd,HLA-B*44:02; [9],62.1 nM
LTHSINALI,Kd,HLA-A*29:02; [15],12800 nM
same,Kd,HLA-A*23:01; [15],1.01 µM
same,Kd,HLA-A*24:02; [15],6.72 µM

# — the Immune Epitope Database (IEDB)
